What is called Kd is a measure of binding affinity in units of concentration. What is called stoichiometry N is the number of molecules, sites or subunits per partner or assembly.

Here are results for 2 molecules from article PMC8563870, “Development of a nanobody-based immunoassay for the sensitive detection of fibrinogen-like protein 1” (Acta Pharmacologica Sinica, 2021).

In one data set the target is LAG-3 (Homo sapiens) (UniProt P18627). The conditions noted are these: cited from earlier work.
Data set [1] deals with the molecule itself. As to the kind of experiment: SEC; Superdex 200, 20 mM Tris pH 8.0, 150 mM NaCl; FGL1-Fc after anti-Flag M2 affinity; one aggregate peak and two FGL1 peaks, the peak at approximately 66 mL taken as the homodimer. On the technique in general: SEC sorts molecules by how far they enter the pores of the column.

LAG-3 (Homo sapiens), sequence (P18627 23-450): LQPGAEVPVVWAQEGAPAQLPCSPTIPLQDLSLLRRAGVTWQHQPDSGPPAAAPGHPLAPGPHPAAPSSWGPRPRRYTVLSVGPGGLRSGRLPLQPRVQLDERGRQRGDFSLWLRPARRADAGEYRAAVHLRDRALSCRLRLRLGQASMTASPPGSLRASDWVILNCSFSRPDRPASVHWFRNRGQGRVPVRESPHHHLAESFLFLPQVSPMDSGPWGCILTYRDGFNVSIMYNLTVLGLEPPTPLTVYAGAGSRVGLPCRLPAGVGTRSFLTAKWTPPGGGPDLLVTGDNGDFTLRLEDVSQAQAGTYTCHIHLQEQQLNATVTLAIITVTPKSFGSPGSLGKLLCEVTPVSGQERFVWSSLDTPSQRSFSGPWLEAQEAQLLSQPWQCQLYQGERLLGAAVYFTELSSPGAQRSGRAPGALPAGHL

In the case of FGL1 (from UniProt Q08830), in the data set with LAG-3 (Homo sapiens), the dissociation constant Kd is 1.5 nM.

B1: FGL1-Fc fusion protein (human fibrinogen-like protein 1 with C-terminal human IgG1 Fc and Flag tag) (Fc fusion, UniProt Q08830 23-306, looked up)
chain: LEDCAQEQMRLRAQVRLLETRVKQQQVKIKQLLQENEVQFLDKGDENTVIDLGSKRQYADCSEIFNDGYKLSGFYKIKPLQSPAEFSVYCDMSDGGGWTVIQRRSDGSENFNRGWKDYENGFGNFVQKHGEYWLGNKNLHFLTTQEDYTLKIDLADFEKNSRYAQYKNFKVGDEKNFYELNIGEYSGTAGDSLAGNFHPEVQWWASHQRMKFSTWDRDHDNYEGNCAEEDQSGWWFNRCHSANLNGVYYSGPYTAKTDNGIVWYTWHGWWYSLKSVVMKIRPND
notes: signal peptide in the construct; human fibrinogen-like protein 1 (FGL1), amino acids 1-306 of NCBI NM_004467, called full-length in the methods; the results say that the protein has 312 amino acids; A 3C protease site and a linker (GGGGS) stand between FGL1 and the Fc, and the Flag tag follows the Fc; The Fc may itself hold the dimer together; For SPR and the ELISAs the Fc was cut off with 3C …
In the case of B1, the “stoichiometry N” value in data set [1] was 2.
